In publication PMC9544338 one finds fold increase of the interaction by ZPT over DMSO data, which are given here for 1 molecule.

Common to all, as to test: co-IP; N2a cells cotransfected with His6-RGS19 and Gαo-GFP (C-terminally tagged) variants, treated with 1 μM ZPT for 3 hours before IP of Gαo with a nanobody against GFP; Western blot; fold against DMSO-treated cells
Background: Immunoblotting shows a protein as a band on a membrane.

Experiment [1] addresses Gαo[R209C]-GFP (C-terminally tagged) (human), P09471. Conditions: remark: other sources report otherwise.
The target of experiment [2] is Gαo[E246K]-GFP (C-terminally tagged) (human), P09471. Conditions: remark: other sources report otherwise.
The target of experiment [3] is Gαo[G203R]-GFP (C-terminally tagged) (human), P09471.

B1: His6-RGS19, P49795 1-217 (other documents disagree on this pair)
chain: MPTPHEAEKQITGPEEADRPPSMSSHDTASPAAPSRNPCCLCWCCCCSCSWNQERRRAWQASRESKLQPLPSCEVCATPSPEEVQSWAQSFDKLMHSPAGRSVFRAFLRTEYSEENMLFWLACEELKAEANQHVVDEKARLIYEDYVSILSPKEVSLDSRVREGINKKMQEPSAHTFDDAQLQIYTLMHRDSYPRFLSSPTYRALLLQGPSQSSSEA
With B1, the fold increase of the interaction by ZPT over DMSO in experiment [1] stood at 6 fold; in experiment [2] it was 12 fold; in experiment [3], 20 fold.
